Like-named read-outs stand apart in the source and are kept apart here.

These results are taken from US20250019443A1 (DUKE UNIVERSITY, published 2025).

Assay [1] addresses HLA-E-RL9SIV single chain trimer on transfected 293T cells (human, UniProt P61769 21-119; P13747 22-358). Put plainly: flow cytometry, SCT-transfected 293T cells, MFI bar chart [panel E].
Assay [2] addresses T1, Mtb44 (peptide pulsed K562-HLA-E cells) (human).
T1 construct: cell surface
Put plainly: flow cytometry on peptide-pulsed K562-HLA-E cells; AF647 anti-mouse Ig(H+L).

In assay [3] the target is T2, RL9 SIV (peptide pulsed K562-HLA-E cells) (human).
T2 construct: cell surface
The description is as above.

Assay [4] has as its target T3, RL9HIV (peptide pulsed K562-HLA-E cells) (human).
T3 construct: cell surface
The description is as above.

For assay [5], the target named is T4, soluble HLA-E-VL9 complex (HLA-E*01:03, β2M, VL9 peptide) (human).
Assay [6] concerns the target T4, soluble HLA-E-VL9 complex (HLA-E*01:03, …). This is another data set of the same source.
For assay [7] the target is unchanged. The source holds these as a separate data set.
In assay [8] the target is HLA-E-RL9HIV with a mutation at P1 (arginine to valine) on transfected 293T cells (human, UniProt P61769 21-119; P13747 22-358). Put plainly: flow cytometry on transfected HEK 293T cells.
In assay [9] the target is T4, soluble HLA-E-VL9 complex (HLA-E*01:03, …). The source holds these as a separate data set.

B1: CA172 (antibody, V domains shown)
VH: QVQLVESGGGLVKPGGSLRLSCAASGFTFSDYYMSWIRQAPGKGLEWVSYISSSSSYTNYADSVKGRFTISRDNAKNSLYLQMNSLRAEDTAVYYCARALRYFDWYDYWGQGTLVTVSS
VL: EIVLTQSPDFQSVTPKGKVTITCRASQSIGSSLHWYQQKPDQSPKLLIKYASQSFSGVPSRFSGSGSGTEFTLTISSLQPEDFATYYCQQLNSYSPITFGQGTRLEIK
B1: in assay [1], the binding result was “no binding (tested: 2 µg/ml)”.

B2: 3H4 IgM (murine HLA-E-VL9-specific IgM monoclonal antibody 3H4) (antibody, V domains shown)
VH: EVQLQESGPELVKPGASVKIPCKASGYTFTDYNMDWVKQSHGKSLEWIGDINPNNGGTIYNQKFKGKATLTVDKSSSTAYMELRSLTSEDTAVYYCARPDYYGSSYGWYFDVWGTGTTVTVSS
VL: DIVITQSPSSMYASLGERVTITCKASQDINSYLSWFQQKPGKSPKTLIYRANRLVDGVPSRFSGSGSGQDYSLTISSLEYEDMGIYYCLQYDEFPLTFGAGTKLELK
notes: also called mAb 3H4; IgM 3H4
In the case of B2, the MFI in [2] worked out at 1180; in assay [3], 1580; in assay [4], 1520.

B3: 3H4 Gv3 (antibody, V domains shown)
VH: EVQLQESGPELVKPGASVKIPCKASGYTFTDYNMDWVKQSHGKSLEWIGDINPNNGGTIYNQKFKGKATLTVDKSSSTAYMELRSLTSEDTAVYYCARPDSAQYSYGWYFDVWGTGTTVTVSS
VL: DIVITQSPSSMYASLGERVTITCKASQDINSYLSWFQQKPGKSPKTLIYRANRLVDGVPSRFSGSGSGQDYSLTISSLEYEDMGIYYCLQYDEFPLTFGAGTKLELK
In assay [5], B3 showed a Kd of 223 nM.

B4: 3H4 Gv7 (antibody, V domains shown)
VH: EVQLQESGPELVKPGASVKIPCKASGYTFTDYNMDWVKQSHGKSLEWIGDINPNNGGTIYNQKFKGKATLTVDKSSSTAYMELRSLTSEDTAVYYCARPDGARWSYGWYFDVWGTGTTVTVSS
VL: DIVITQSPSSMYASLGERVTITCKASQDINSYLSWFQQKPGKSPKTLIYRANRLVDGVPSRFSGSGSGQDYSLTISSLEYEDMGIYYCLQYDEFPLTFGAGTKLELK
Take B4: in assay [6], the Kd was 735 nM, the koff was determined as 0.0345 s⁻¹ and the on-rate (kon) came to 47000 M⁻¹ s⁻¹. In assay [7], the Kd was 994 nM, the koff worked out at 0.0349 s⁻¹ and the kon came to 35200 M⁻¹ s⁻¹.

B5: 3H4G_v31 (antibody, V domains shown)
VH: EVQLQESGPELVKPGASVKIPCKASGYTFTDYNMDWVKQSHGKSLEWIGDINPNNGGTIYNQKFKGKATLTVDKSSSTAYMELRSLTSEDTAVYYCARPDSAQYRWNWYFDVWGTGTTVTVSS
VL: DIVITQSPSSMYASLGERVTITCKASQDINSYLSWFQQKPGKSPKTLIYRANRLVDGVPSRFSGSGSGQDYSLTISSLEYEDMGIYYCLQYDEFPLTFGAGTKLELK
notes: also called 3H4_Gv31_G1.4A
In the case of B5, the binding result in [8] is recorded as “binds”. In addition, in assay [9], binding was characterised by a dissociation constant (Kd) of 62.4 nM, the koff was 0.0112 s⁻¹ and the kon came out at 180000 M⁻¹ s⁻¹.
